Reference: the supplement of paper PMC9112550, “Optimization of the antimicrobial peptide Bac7 by deep mutational scanning” (BMC Biology, 2022)

The sequences below were run on Escherichia coli TOP10 (assay: shrunken log2 fold change of peptide-encoding DNA abundance (4.5 h post-induction vs induction); higher = less antimicrobial activity (less host growth inhibition)). Conditions: time post-induction: 4.5 h; library: site-saturation at positions 5, 18, 19, 20.
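Also: peptides expressed intracellularly from a pBAD plasmid library in pooled LB shake-flask culture, induced with 0.3% L-arabinose, DNA abundance read by NGS, three biological replicates, DESeq2 with apeglm shrinkage.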

In order of rising “shrunken log2 fold change” value:
1. RRIRMRPPRLPRPRPRPYWMPRP  -1.18
2. RRIRIRPPRLPRPRPRPYINPRP  -1.08
3. RRIRYRPPRLPRPRPRPCFYPRP  -0.909
4. RRIRVRPPRLPRPRPRPNVYPRP  -0.787
5. RRIRSRPPRLPRPRPRPIYPPRP  -0.766
6. RRIRERPPRLPRPRPRPHKHPRP  -0.671
7. RRIRFRPPRLPRPRPRPACIPRP  -0.397
8. RRIRARPPRLPRPRPRPKYSPRP  -0.39
9. RRIRQRPPRLPRPRPRPHSKPRP  -0.328
10. RRIRIRPPRLPRPRPRPQNLPRP  -0.261
11. RRIRYRPPRLPRPRPRPHFSPRP  -0.256
12. RRIRNRPPRLPRPRPRPSFKPRP  -0.25
13. RRIRDRPPRLPRPRPRPWDRPRP  -0.193
14. RRIRDRPPRLPRPRPRPFAMPRP  -0.188
15. RRIRTRPPRLPRPRPRPSCVPRP  -0.185
16. RRIRYRPPRLPRPRPRPRYLPRP  -0.176
17. RRIRQRPPRLPRPRPRPPQKPRP  -0.167
18. RRIRGRPPRLPRPRPRPIHKPRP  -0.16
19. RRIRNRPPRLPRPRPRPQQGPRP  -0.159
20. RRIRVRPPRLPRPRPRPQEGPRP  -0.15
21. RRIRCRPPRLPRPRPRPKVKPRP  -0.133
22. RRIRYRPPRLPRPRPRPMAAPRP  -0.115
23. RRIRIRPPRLPRPRPRPQQSPRP  -0.113
24. RRIRIRPPRLPRPRPRPIVIPRP  -0.103
25. RRIRWRPPRLPRPRPRPQYYPRP  -0.0952
26. RRIRHRPPRLPRPRPRPMGDPRP  -0.0774
27. RRIRCRPPRLPRPRPRPFCFPRP  -0.0725
28. RRIRGRPPRLPRPRPRPNLIPRP  -0.0614
29. RRIRCRPPRLPRPRPRPTKCPRP  -0.0551
30. RRIRSRPPRLPRPRPRPPIMPRP  -0.0485
31. RRIRPRPPRLPRPRPRPFPWPRP  -0.0429
32. RRIRVRPPRLPRPRPRPTFCPRP  -0.0418
33. RRIRNRPPRLPRPRPRPNGVPRP  -0.0397
34. RRIRMRPPRLPRPRPRPHFDPRP  -0.0378
35. RRIRKRPPRLPRPRPRPFRVPRP  -0.035
36. RRIRHRPPRLPRPRPRPLELPRP  -0.0293
37. RRIRLRPPRLPRPRPRPSCVPRP  -0.0228
38. RRIRERPPRLPRPRPRPEMCPRP  -0.0143
39. RRIRARPPRLPRPRPRPHRLPRP  -0.0138
40. RRIRWRPPRLPRPRPRPMKPPRP  -0.0125
41. RRIRRRPPRLPRPRPRPVDYPRP  -0.0118
42. RRIRDRPPRLPRPRPRPMMNPRP  -0.00862
43. RRIRYRPPRLPRPRPRPHGSPRP  -0.00822
44. RRIRTRPPRLPRPRPRPLQTPRP  -0.00743
45. RRIRDRPPRLPRPRPRPNCIPRP  -0.00269
46. RRIRHRPPRLPRPRPRPIVLPRP  0.00695
47. RRIRFRPPRLPRPRPRPMRHPRP  0.0162
48. RRIRHRPPRLPRPRPRPFHHPRP  0.0477
49. RRIRIRPPRLPRPRPRPTKKPRP  0.0727
50. RRIRSRPPRLPRPRPRPMVAPRP  0.0774
51. RRIRERPPRLPRPRPRPPDKPRP  0.0845
52. RRIRRRPPRLPRPRPRPRQTPRP  0.0881
53. RRIRRRPPRLPRPRPRPWEKPRP  0.0936
54. RRIRARPPRLPRPRPRPIICPRP  0.106
55. RRIRSRPPRLPRPRPRPAKTPRP  0.111
56. RRIRDRPPRLPRPRPRPQHWPRP  0.122
57. RRIRLRPPRLPRPRPRPQGEPRP  0.125
58. RRIRQRPPRLPRPRPRPPGLPRP  0.127
59. RRIRNRPPRLPRPRPRPAWVPRP  0.147
60. RRIRWRPPRLPRPRPRPLRIPRP  0.148
61. RRIRERPPRLPRPRPRPVVAPRP  0.182
62. RRIRARPPRLPRPRPRPVGHPRP  0.189
63. RRIRDRPPRLPRPRPRPTGNPRP  0.195
64. RRIRKRPPRLPRPRPRPHLFPRP  0.205
65. RRIRWRPPRLPRPRPRPTLQPRP  0.253
66. RRIRQRPPRLPRPRPRPAHWPRP  0.261
67. RRIRFRPPRLPRPRPRPRFWPRP  0.317
68. RRIRFRPPRLPRPRPRPTKWPRP  0.333
69. RRIRARPPRLPRPRPRPWDEPRP  0.379
70. RRIRLRPPRLPRPRPRPTRDPRP  0.454
71. RRIRQRPPRLPRPRPRPAGAPRP  0.666
72. RRIRPRPPRLPRPRPRPGGWPRP  0.724
73. RRIRGRPPRLPRPRPRPVLAPRP  0.773
74. RRIRARPPRLPRPRPRPTHWPRP  0.863
75. RRIRARPPRLPRPRPRPAAAPRP  1.11
